Laboratory results reported in patent publication US20260193293A1, “PEPTIDES CAPABLE OF INHIBITING PROTEIN-PROTEIN INTERACTIONS AT GABAB1A SUBUNIT AND USES THEREOF” (UNIVERSITY OF COPENHAGEN, priority 2022, published 2026).
Starred links: 1 amine or outer side, 2 acyl side, 3 side chain; linkers in the order of their positions; H or OH if unused. Non-standard residues stand in square brackets, D forms with d. Tyr(Bzl) = Obtyr, O-benzyl-L-tyrosine, O=C([C@H](Cc1ccc(OCc2ccccc2)cc1)N[*:1])[*:2]; Tyr(Et) = Oetyr, O-ethyl-L-tyrosine, CCOc1ccc(C[C@H](N[*:1])C(=O)[*:2])cc1; Obtyr = O-benzyl-L-tyrosine, O=C([C@H](Cc1ccc(OCc2ccccc2)cc1)N[*:1])[*:2]; Oetyr = O-ethyl-L-tyrosine, CCOc1ccc(C[C@H](N[*:1])C(=O)[*:2])cc1; 1Nal = N[C@@H](Cc1cccc2ccccc12)C(=O)O; 2Nal = N[C@@H](Cc1ccc2ccccc2c1)C(=O)O; Cya = N[C@@H](CS(=O)(=O)O)C(=O)O; 3Pal = N[C@@H](Cc1cccnc1)C(=O)O; 4Pal = N[C@@H](Cc1ccncc1)C(=O)O

B1: EDDS(Oetyr)… (peptide)
peptide: Ac-EDDS[Tyr(Et)]VWWGGADTD-NH2
SMILES: CCOc1ccc(C[C@H](NC(=O)[C@H](CO)NC(=O)[C@H](CC(=O)O)NC(=O)[C@H](CC(=O)O)NC(=O)[C@H](CCC(=O)O)NC(C)=O)C(=O)N[C@H](C(=O)N[C@@H](Cc2c[nH]c3ccccc23)C(=O)N[C@@H](Cc2c[nH]c3ccccc23)C(=O)NCC(=O)NCC(=O)N[C@@H](C)C(=O)N[C@@H](CC(=O)O)C(=O)N[C@H](C(=O)N[C@@H](CC(=O)O)C(N)=O)[C@@H](C)O)C(C)C)cc1
B2: EDDS(2Nala)… (peptide)
peptide: Ac-EDDS[2Nal]VWWGGADTD-NH2
SMILES: CC(=O)N[C@@H](CCC(=O)O)C(=O)N[C@@H](CC(=O)O)C(=O)N[C@@H](CC(=O)O)C(=O)N[C@@H](CO)C(=O)N[C@@H](Cc1ccc2ccccc2c1)C(=O)N[C@H](C(=O)N[C@@H](Cc1c[nH]c2ccccc12)C(=O)N[C@@H](Cc1c[nH]c2ccccc12)C(=O)NCC(=O)NCC(=O)N[C@@H](C)C(=O)N[C@@H](CC(=O)O)C(=O)N[C@H](C(=O)N[C@@H](CC(=O)O)C(N)=O)[C@@H](C)O)C(C)C
B3: EDDS(Obtyr)… (peptide)
peptide: Ac-EDDS[Tyr(Bzl)]VWWGGADTD-NH2
SMILES: CC(=O)N[C@@H](CCC(=O)O)C(=O)N[C@@H](CC(=O)O)C(=O)N[C@@H](CC(=O)O)C(=O)N[C@@H](CO)C(=O)N[C@@H](Cc1ccc(OCc2ccccc2)cc1)C(=O)N[C@H](C(=O)N[C@@H](Cc1c[nH]c2ccccc12)C(=O)N[C@@H](Cc1c[nH]c2ccccc12)C(=O)NCC(=O)NCC(=O)N[C@@H](C)C(=O)N[C@@H](CC(=O)O)C(=O)N[C@H](C(=O)N[C@@H](CC(=O)O)C(N)=O)[C@@H](C)O)C(C)C
B4: EDDSDVWW(1Nala)GADTD (peptide)
peptide: Ac-EDDSDVWW[1Nal]GADTD-NH2
SMILES: CC(=O)N[C@@H](CCC(=O)O)C(=O)N[C@@H](CC(=O)O)C(=O)N[C@@H](CC(=O)O)C(=O)N[C@@H](CO)C(=O)N[C@@H](CC(=O)O)C(=O)N[C@H](C(=O)N[C@@H](Cc1c[nH]c2ccccc12)C(=O)N[C@@H](Cc1c[nH]c2ccccc12)C(=O)N[C@@H](Cc1cccc2ccccc12)C(=O)NCC(=O)N[C@@H](C)C(=O)N[C@@H](CC(=O)O)C(=O)N[C@H](C(=O)N[C@@H](CC(=O)O)C(N)=O)[C@@H](C)O)C(C)C
B5: EDDS(3Pal)… (peptide)
peptide: Ac-EDDS[3Pal]VWWGGADTD-NH2
SMILES: CC(=O)N[C@@H](CCC(=O)O)C(=O)N[C@@H](CC(=O)O)C(=O)N[C@@H](CC(=O)O)C(=O)N[C@@H](CO)C(=O)N[C@@H](Cc1cccnc1)C(=O)N[C@H](C(=O)N[C@@H](Cc1c[nH]c2ccccc12)C(=O)N[C@@H](Cc1c[nH]c2ccccc12)C(=O)NCC(=O)NCC(=O)N[C@@H](C)C(=O)N[C@@H](CC(=O)O)C(=O)N[C@H](C(=O)N[C@@H](CC(=O)O)C(N)=O)[C@@H](C)O)C(C)C
B6: EDDS(4Pal)… (peptide)
peptide: Ac-EDDS[4Pal]VWWGGADTD-NH2
SMILES: CC(=O)N[C@@H](CCC(=O)O)C(=O)N[C@@H](CC(=O)O)C(=O)N[C@@H](CC(=O)O)C(=O)N[C@@H](CO)C(=O)N[C@@H](Cc1ccncc1)C(=O)N[C@H](C(=O)N[C@@H](Cc1c[nH]c2ccccc12)C(=O)N[C@@H](Cc1c[nH]c2ccccc12)C(=O)NCC(=O)NCC(=O)N[C@@H](C)C(=O)N[C@@H](CC(=O)O)C(=O)N[C@H](C(=O)N[C@@H](CC(=O)O)C(N)=O)[C@@H](C)O)C(C)C
B7: EDDSDVW(1Nala)GGADTD (peptide)
peptide: Ac-EDDSDVW[1Nal]GGADTD-NH2
SMILES: CC(=O)N[C@@H](CCC(=O)O)C(=O)N[C@@H](CC(=O)O)C(=O)N[C@@H](CC(=O)O)C(=O)N[C@@H](CO)C(=O)N[C@@H](CC(=O)O)C(=O)N[C@H](C(=O)N[C@@H](Cc1c[nH]c2ccccc12)C(=O)N[C@@H](Cc1cccc2ccccc12)C(=O)NCC(=O)NCC(=O)N[C@@H](C)C(=O)N[C@@H](CC(=O)O)C(=O)N[C@H](C(=O)N[C@@H](CC(=O)O)C(N)=O)[C@@H](C)O)C(C)C
B8: EDDSDVW(2Nala)GGADTD (peptide)
peptide: Ac-EDDSDVW[2Nal]GGADTD-NH2
SMILES: CC(=O)N[C@@H](CCC(=O)O)C(=O)N[C@@H](CC(=O)O)C(=O)N[C@@H](CC(=O)O)C(=O)N[C@@H](CO)C(=O)N[C@@H](CC(=O)O)C(=O)N[C@H](C(=O)N[C@@H](Cc1c[nH]c2ccccc12)C(=O)N[C@@H](Cc1ccc2ccccc2c1)C(=O)NCC(=O)NCC(=O)N[C@@H](C)C(=O)N[C@@H](CC(=O)O)C(=O)N[C@H](C(=O)N[C@@H](CC(=O)O)C(N)=O)[C@@H](C)O)C(C)C
B9: EDDSDVW(Obtyr)GGADTD (peptide)
peptide: Ac-EDDSDVW[Tyr(Bzl)]GGADTD-NH2
SMILES: CC(=O)N[C@@H](CCC(=O)O)C(=O)N[C@@H](CC(=O)O)C(=O)N[C@@H](CC(=O)O)C(=O)N[C@@H](CO)C(=O)N[C@@H](CC(=O)O)C(=O)N[C@H](C(=O)N[C@@H](Cc1c[nH]c2ccccc12)C(=O)N[C@@H](Cc1ccc(OCc2ccccc2)cc1)C(=O)NCC(=O)NCC(=O)N[C@@H](C)C(=O)N[C@@H](CC(=O)O)C(=O)N[C@H](C(=O)N[C@@H](CC(=O)O)C(N)=O)[C@@H](C)O)C(C)C
B10: ETEFI(Cya)WGPTGDED (peptide)
peptide: Ac-ETEFI[Cya]WGPTGDED-NH2
SMILES: CC[C@H](C)[C@H](NC(=O)[C@H](Cc1ccccc1)NC(=O)[C@H](CCC(=O)O)NC(=O)[C@@H](NC(=O)[C@H](CCC(=O)O)NC(C)=O)[C@@H](C)O)C(=O)N[C@@H](CS(=O)(=O)O)C(=O)N[C@@H](Cc1c[nH]c2ccccc12)C(=O)NCC(=O)N1CCC[C@H]1C(=O)N[C@H](C(=O)NCC(=O)N[C@@H](CC(=O)O)C(=O)N[C@@H](CCC(=O)O)C(=O)N[C@@H](CC(=O)O)C(N)=O)[C@@H](C)O
B11: Scr-20 (peptide)
peptide: Ac-[2Nal]EDSDDYDDIDDDW-NH2
SMILES: CC[C@H](C)[C@H](NC(=O)[C@H](CC(=O)O)NC(=O)[C@H](CC(=O)O)NC(=O)[C@H](Cc1ccc(O)cc1)NC(=O)[C@H](CC(=O)O)NC(=O)[C@H](CC(=O)O)NC(=O)[C@H](CO)NC(=O)[C@H](CC(=O)O)NC(=O)[C@H](CCC(=O)O)NC(=O)[C@H](Cc1ccc2ccccc2c1)NC(C)=O)C(=O)N[C@@H](CC(=O)O)C(=O)N[C@@H](CC(=O)O)C(=O)N[C@@H](CC(=O)O)C(=O)N[C@@H](Cc1c[nH]c2ccccc12)C(N)=O
B12: peptide 20 (peptide)
peptide: EDDDAIDWYDSDDD
modifications: N-terminal acetyl; C-terminal amide; 2Nala (3-(2-naphthyl)-L-alanine) at position 5
B13: peptide 21 (peptide)
peptide: Ac-EDDD[2Nal]IDWGPTSDDD-NH2
SMILES: CC[C@H](C)[C@H](NC(=O)[C@H](Cc1ccc2ccccc2c1)NC(=O)[C@H](CC(=O)O)NC(=O)[C@H](CC(=O)O)NC(=O)[C@H](CC(=O)O)NC(=O)[C@H](CCC(=O)O)NC(C)=O)C(=O)N[C@@H](CC(=O)O)C(=O)N[C@@H](Cc1c[nH]c2ccccc12)C(=O)NCC(=O)N1CCC[C@H]1C(=O)N[C@H](C(=O)N[C@@H](CO)C(=O)N[C@@H](CC(=O)O)C(=O)N[C@@H](CC(=O)O)C(=O)N[C@@H](CC(=O)O)C(N)=O)[C@@H](C)O
B14: peptide 33 (peptide)
peptide: Ac-EDDD[Obtyr]IDWYDSDDD-NH2
SMILES: CC[C@H](C)[C@H](NC(=O)[C@H](Cc1ccc(OCc2ccccc2)cc1)NC(=O)[C@H](CC(=O)O)NC(=O)[C@H](CC(=O)O)NC(=O)[C@H](CC(=O)O)NC(=O)[C@H](CCC(=O)O)NC(C)=O)C(=O)N[C@@H](CC(=O)O)C(=O)N[C@@H](Cc1c[nH]c2ccccc12)C(=O)N[C@@H](Cc1ccc(O)cc1)C(=O)N[C@@H](CC(=O)O)C(=O)N[C@@H](CO)C(=O)N[C@@H](CC(=O)O)C(=O)N[C@@H](CC(=O)O)C(=O)N[C@@H](CC(=O)O)C(N)=O
B15: peptide 35 (peptide)
peptide: Ac-EDDD[Obtyr]IDWGPTSDDD-NH2
SMILES: CC[C@H](C)[C@H](NC(=O)[C@H](Cc1ccc(OCc2ccccc2)cc1)NC(=O)[C@H](CC(=O)O)NC(=O)[C@H](CC(=O)O)NC(=O)[C@H](CC(=O)O)NC(=O)[C@H](CCC(=O)O)NC(C)=O)C(=O)N[C@@H](CC(=O)O)C(=O)N[C@@H](Cc1c[nH]c2ccccc12)C(=O)NCC(=O)N1CCC[C@H]1C(=O)N[C@H](C(=O)N[C@@H](CO)C(=O)N[C@@H](CC(=O)O)C(=O)N[C@@H](CC(=O)O)C(=O)N[C@@H](CC(=O)O)C(N)=O)[C@@H](C)O
B16: peptide 32 (peptide)
peptide: Ac-EDDD[Oetyr]IDWYDSDDD-NH2
SMILES: CCOc1ccc(C[C@H](NC(=O)[C@H](CC(=O)O)NC(=O)[C@H](CC(=O)O)NC(=O)[C@H](CC(=O)O)NC(=O)[C@H](CCC(=O)O)NC(C)=O)C(=O)N[C@H](C(=O)N[C@@H](CC(=O)O)C(=O)N[C@@H](Cc2c[nH]c3ccccc23)C(=O)N[C@@H](Cc2ccc(O)cc2)C(=O)N[C@@H](CC(=O)O)C(=O)N[C@@H](CO)C(=O)N[C@@H](CC(=O)O)C(=O)N[C@@H](CC(=O)O)C(=O)N[C@@H](CC(=O)O)C(N)=O)[C@@H](C)CC)cc1
B17: peptide 34 (peptide)
peptide: Ac-EDDD[Oetyr]IDWGPTSDDD-NH2
SMILES: CCOc1ccc(C[C@H](NC(=O)[C@H](CC(=O)O)NC(=O)[C@H](CC(=O)O)NC(=O)[C@H](CC(=O)O)NC(=O)[C@H](CCC(=O)O)NC(C)=O)C(=O)N[C@H](C(=O)N[C@@H](CC(=O)O)C(=O)N[C@@H](Cc2c[nH]c3ccccc23)C(=O)NCC(=O)N2CCC[C@H]2C(=O)N[C@H](C(=O)N[C@@H](CO)C(=O)N[C@@H](CC(=O)O)C(=O)N[C@@H](CC(=O)O)C(=O)N[C@@H](CC(=O)O)C(N)=O)[C@@H](C)O)[C@@H](C)CC)cc1

biological target: Sushi domains (SD1/2) protein of the GABAB1a (GB1a) subunit, recombinant; test: FP competition
Sequence (Q9Z0U4 29-158): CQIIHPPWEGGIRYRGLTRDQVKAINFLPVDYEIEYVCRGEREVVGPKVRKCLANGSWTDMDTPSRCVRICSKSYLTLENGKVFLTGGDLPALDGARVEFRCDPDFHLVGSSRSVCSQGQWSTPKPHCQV

Row | Binder | Ki | fold increased affinity compared to Asp207Trp
1 | B1 | 46.3 nM | 2 fold
2 | B2 | – | 2 fold
3 | B3 | 27.1 nM | 4 fold
4 | B4 | 100 nM | –

biological target: Sushi domains (SD1/2) protein of GABAB1a (GB1a); test: FP competition vs TAMRA AJAP-1probe
Sequence (Q9Z0U4 29-158): as above

Row | Binder | Ki
5 | B1 | 46 nM
6 | B2 | 43 nM
7 | B3 | 28 nM
8 | B4 | 114 nM
9 | B5 | 373 nM
10 | B6 | 424 nM
11 | B7 | 499 nM
12 | B8 | 814 nM
13 | B9 | 3860 nM
14 | B10 | 12 nM
15 | B11 | 31200 nM
16 | B12 | 1.5 nM
17 | B13 | 5.3 nM
18 | B14 | 9.3 nM
19 | B15 | 9.5 nM
20 | B16 | 5.3 nM
21 | B17 | 6.5 nM
